These results are taken from patent publication US20250361322A1 (ICONIC THERAPEUTICS, published 2025).

The target in experiment [1] is T1, h108-219_r (human/rat chimera).
T1 chain: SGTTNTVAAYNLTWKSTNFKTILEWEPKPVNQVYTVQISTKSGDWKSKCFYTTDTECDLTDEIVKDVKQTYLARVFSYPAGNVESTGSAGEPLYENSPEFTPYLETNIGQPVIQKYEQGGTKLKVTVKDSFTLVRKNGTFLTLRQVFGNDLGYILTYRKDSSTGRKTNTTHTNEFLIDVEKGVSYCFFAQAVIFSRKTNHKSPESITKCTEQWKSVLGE
The experiment is described as follows: live cell staining, flow cytometry, transfected HEK293.
Protocol: To establish binding of the anti-human TF antibodies to the various TF constructs, HEK293 cells were transfected with a DNA plasmid that co-expresses the TF construct and a green fluorescent protein marker. […] Upon acquisition of 80,000 live events on a flow cytometer, live cells marked with the fluorescent marker were analyzed for the degree of staining by the anti-TF antibody.

The target of experiment [2] is T2, Expi293-derived TF-His (human (Example 17 does not restate the …, UniProt P13726 33-251)).
T2 construct: Glycosylated TF ECD-His6 from Expi293 cells; also called Expi293-derived TF protein; TF ECD-His6
As to the kind of experiment: protein ELISA, plate coated with Expi293-derived TF-His, antibody titrated, HRP secondary, luminescence; Expi293-derived TF, not E. coli-derived.
Protocol: (§1) Plates coated with Expi293- or E. coli-derived TF-His were incubated with increasing concentrations of antibodies.

The target in experiment [3] is T3, E. coli-derived TF (human (Example 17 does not restate the …, UniProt P13726 33-251)).
T3 construct: also called E. coli-derived TF-His; E. coli-derived TF protein
As to the kind of experiment: protein ELISA, plate coated with E. coli-derived TF-His, antibody titrated, HRP secondary, luminescence.
Protocol: as §1

Experiment [4] addresses T4, Macaca mulatta TF on RF/6A cells (Macaca mulatta (protein sequence stated …, UniProt P13726 33-294 (human entry))).
T4 construct: Endogenous TF of the RF/6A cell line; also called TF-positive Macaca mulatta RF/6A cells; cynomolgus TF
T4 chain: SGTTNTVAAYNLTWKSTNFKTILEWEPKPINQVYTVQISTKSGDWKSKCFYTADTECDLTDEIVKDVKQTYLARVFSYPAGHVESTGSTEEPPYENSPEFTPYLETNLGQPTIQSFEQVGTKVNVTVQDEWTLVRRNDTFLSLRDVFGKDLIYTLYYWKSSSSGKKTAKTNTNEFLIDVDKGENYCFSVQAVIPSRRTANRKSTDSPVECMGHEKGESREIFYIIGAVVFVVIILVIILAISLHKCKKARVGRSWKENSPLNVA
As to the kind of experiment: flow cytometry, IgG1 titrated on TF-positive Macaca mulatta RF/6A cells, 4-parameter fit. A general note: A flow cytometer gives signals particle by particle.
Protocol: (§2) After 2 washes, dead cells were labeled with TO-PRO-3 Iodide (ThermoFisher Scientific) and samples were analyzed on a CytoFLEX flow cytometer (Beckman Coulter, Brea, CA, USA) or Novocyte flow cytometer (ACEA Biosciences, San Diego, CA, USA). The median fluorescence intensities (MFIs) at each dilution were plotted and cell EC₅₀'s were derived using a 4-parameter binding model in Prism (GraphPad, La Jolla, CA, USA).

Experiment [5] concerns the target T5, rTF (rat TF) construct on HEK293 cells (rat, UniProt P42533 29-252).
T5 construct: not shown: transmembrane/cytoplasmic anchor of the cell-surface construct
The experiment is described as follows: flow cytometry (live cell staining), antibody titration 1:3 from 250 nM on HEK293 cells transfected with rTF.

For experiment [6], the target named is T6, r141-194_h chimeric rat-human TF construct on HEK293 cells (rat with human segment, UniProt P42533 29-252).
T6 construct: not shown: transmembrane/cytoplasmic anchor of the cell-surface construct
As to the kind of experiment: flow cytometry (live cell staining), antibody titration 1:3 from 250 nM on HEK293 cells transfected with r141-194_h.

For experiment [7], the target named is T7, hTF_N171H_T197K construct on HEK293 cells (human, UniProt P13726 33-251).
T7 construct: The entry already carries N171H and T197K; not shown: transmembrane/cytoplasmic anchor of the cell-surface construct
T7 chain: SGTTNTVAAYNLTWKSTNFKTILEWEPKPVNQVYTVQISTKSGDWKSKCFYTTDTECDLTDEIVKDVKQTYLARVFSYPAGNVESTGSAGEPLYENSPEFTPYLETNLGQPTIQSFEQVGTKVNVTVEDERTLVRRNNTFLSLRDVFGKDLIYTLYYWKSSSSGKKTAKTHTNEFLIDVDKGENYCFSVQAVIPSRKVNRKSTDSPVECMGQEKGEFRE
The experiment is described as follows: live cell staining, HEK293 cells.

In experiment [8] the target is T8, human Tissue Factor on human TF-positive cells (human, UniProt P13726 33-295).
T8 construct: also called hTF; CD142
The experiment is described as follows: flow cytometry, titration of unconjugated antibody on HCT-116 cells (human TF), 4-parameter fit of MFI.

The target in experiment [9] is T8, human Tissue Factor on human …. The experiment is described as follows: competition flow cytometry on MDA-MB-231 cells: unlabeled antibody titration first, then 20 nM 25A3-Alexa488 as the competitor.
The target is the same in experiment [10]. As to the kind of experiment: competition flow cytometry on MDA-MB-231 cells: unlabeled antibody titration first, then 20 nM 43D7-Alexa488 as the competitor.
Protocol: After another 1 hr incubation on ice, cells were washed, stained with a viability dye, and analyzed by flow cytometry. The Alexa488 fluorescence data from viable cells was summarized using median fluorescence intensity.
For experiment [11] the target is unchanged. As to the kind of experiment: flow cytometry, antibody titration on A431 cells (human TF), 4-parameter fit of MFI.
Protocol: as §2
Experiment [12] shares this target. As to the kind of experiment: flow cytometry, antibody titration on HCT-116 cells (endogenous human TF), 4-parameter fit of MFI.
Protocol: as §2
The target is the same in experiment [13]. As to the kind of experiment: flow cytometry, antibody titration on MDA-MB-231 cells (human TF), 4-parameter fit of MFI.
Protocol: as §2
Experiment [14] has the same target. As to the kind of experiment: competition flow cytometry on MDA-MB-231 cells: unlabeled antibody titration first, then 20 nM 25A3-Alexa488 as the competitor. This is another data set of the same source.
The target in experiment [15] is T9, human TF ECD-His6 (human, UniProt P13726 33-251).
T9 construct: Expi293-derived; Biacore used TF-His; also called TF-His; hTF
As to the kind of experiment: SPR (Biacore), TF-His over coupled antibody.
Protocol: (§3) Kinetic measurements for the anti-TF antibodies were conducted on an Octet QK384 (Pall ForteBio, Fremont, CA, USA) or a Biacore (GE Healthcare Bio-Sciences).
(§4) For the Biacore-based measurements, the antibody was covalently coupled to a CM5 or C1 chip using an amine-coupling kit (GE Healthcare Bio-Sciences). Association between the anti-TF antibodies and a five-point three-fold titration of TF-His starting at 25 to 500 nM was measured for 300 sec. Subsequently, dissociation between the anti-TF antibody and TF-His was measured for up to 1800 sec. Kinetic data was analyzed and fitted globally using a 1:1 binding model.

Experiment [16] addresses T10, cynomolgus monkey TF ECD-His6 (cynomolgus monkey (Macaca fascicularis)).
T10 construct: Expi293-derived; also called TF-His; cTF
T10 chain: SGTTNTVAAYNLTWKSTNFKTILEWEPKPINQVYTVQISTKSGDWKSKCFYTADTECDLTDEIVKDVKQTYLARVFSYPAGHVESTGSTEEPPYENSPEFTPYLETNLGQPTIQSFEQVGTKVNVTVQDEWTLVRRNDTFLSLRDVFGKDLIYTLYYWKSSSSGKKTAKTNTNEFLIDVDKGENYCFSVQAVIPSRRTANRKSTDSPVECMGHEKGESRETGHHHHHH
As to the kind of experiment: SPR (Biacore), TF-His over coupled antibody. (SPR reads the build-up and loss of mass on a sensor chip optically.)
Protocol: as §3, §4

Experiment [17] concerns the target T11, mouse TF ECD-His6 (mouse, UniProt P20352 29-251).
T11 construct: Expi293-derived; also called TF-His; mTF
The experiment is described as follows: BLI (ForteBio Octet). Background: BLI is a label-free optical method that tracks binding on a fibre tip over time.
Protocol: as §3
(§5) Briefly, ForteBio affinity measurements were performed by loading IgGs on-line onto AHC sensors. Sensors were equilibrated off-line in assay buffer for 30 min and then monitored on-line for 60 seconds for baseline establishment. Sensors with loaded IgGs were exposed to 100 nM antigen (human, cynomolgus, or mouse TF) for 3 min, afterwards they were transferred to assay buffer for 3 min for off-rate measurement. Alternatively, binding measurements were obtained by loading biotinylated TF monomer on SA sensors followed by exposure to 100 nM antibody Fab in solution. Kinetic data was analyzed and fitted using a 1:1 Langmuir binding model and the KD was calculated by dividing the koff by the kₒₙ.

Experiment [18] has as its target T9, human TF ECD-His6. The experiment is described as follows: BLI (ForteBio Octet).
Protocol: as §3, §5
Experiment [19] addresses T10, cynomolgus monkey TF ECD-His6. The experiment is described as follows: BLI (ForteBio Octet).
Protocol: as §3, §5
Experiment [20] concerns the target T12, full-length mouse TF with a C-terminal FLAG tag on Flp-In-CHO cells (mouse, UniProt P20352 29-294).
T12 construct: also called CHO-mTF; mouse TF-positive CHO cells
As to the kind of experiment: flow cytometry on CHO cells expressing mouse TF, MFI at 250 nM antibody.
Protocol: as §2

B1: 5G9 (humanized TF8-5G9, CNTO 860) (antibody, V domains shown)
VH: QVQLVESGGGVVQPGRSLRLSCKASGFNIKDYYMHWVRQAPGKGLEWIGLIDPENGNTIYDPKFQGRFTISADNSKNTLFLQMDSLRPEDTAVYYCARDNSYYFDYWGQGTPVTVSS
VL: DIQMTQSPSSLSASVGDRVTITCKASQDIRKYLNWYQQKPGKAPKLLIYYATSLADGVPSRFSGSGSGTDYTFTISSLQPEDIATYYCLQHGESPYTFGQGTKLEIT
notes: Previously described anti-TF antibody; detected with anti-human IgG-Fc; also called h5G9
For the molecule B1, in [1], the “percent antibody binding to TF construct relative to hTF” value is 0%.

B2: 1F (antibody, human IgG1, V domains shown)
VH: EVQLLESGGGLVQPGGSLRLSCAASGFTFSDYAMGWVRQAPGKGLEWVSTISGSGGLTYYADSVKGRFTISRDNSKNTLYLQMNSLRAEDTAVYYCAKAPYGYYMDVWGKGTTVTVSS
VL: not shown
notes: Human IgG1; also called antibody designated 1F
For B2, the EC50 in [2] was 0.41 nM; in [3], 0.32 nM; in experiment [4], 0.17 nM.

B3: 10H10 (M1593) (antibody, V domains shown)
VH: EVQLVQSGAEVKKPGESLRISCKGSGYTFAPYWIEWVRQMPGKGLEWMGDILPGTGFTTYSPSFQGHVTISADKSISTAYLQWSSLKASDTAMYYCARSGYYGNSGFAYWGQGTLVTVSS
VL: DIVMTQTPLSLPVTPGEPASISCKSSQSLLSSGNQKNYLTWYLQKPGQSPQLLIYWASTRESGVPDRFSGSGSGTDFTLKISRVEAEDVGVYYCQNDYTYPLTFGQGTKLEIK
notes: also called anti-TF M1593
Consider B3, for which the binding result in experiment [5] and in experiment [6] was “no binding (tested: 250 nM)” in each case.

B4: 25A3 (antibody, human IgG1, V domains shown)
VH: QVQLVQSGAEVKKPGASVKVSCKASGYTFDVYGISWVRQAPGQGLEWMGWIAPYSGNTNYAQKLQGRVTMTTDTSTSTAYMELRSLRSDDTAVYYCARDAGTYSPFGYGMDVWGQGTTVTVSS
VL: DIQMTQSPSTLSASVGDRVTITCQASQSINNWLAWYQQKPGKAPKLLIYKAYNLESGVPSRFSGSGSGTEFTLTISSLQPDDFATYYCQLFQSLPPFTFGGGTKVEIK
notes: Human IgG1; also called antibody designated 25A3
As to B4, the figures for the binding result in [7] and in experiment [5] were “no binding (tested: 15 ug/ml (100 nM); below 50% of hTF)” and “no binding (tested: 250 nM)”, respectively. Further, the EC50 in experiment [8] stood at 0.16 nM; in [11] it was 0.5 nM; in [12], 0.077 nM; in [13], 0.17 nM. Besides, the IC50 in experiment [9] was determined as 1.13 nM; in [10], 0.84 nM; in experiment [14], 1.03 nM. Also, the Kd is 0.36 nM in [15]; 0.21 nM in experiment [16]; 131 nM in [17]; 1.67 nM in experiment [18]; 1.36 nM in [19]. Also, the “MFI at 250 nM” value in experiment [20] is 5.8e+06.

Usually EC50 stands for the concentration that produces a half-maximal response. For orientation: IC50 means the concentration at which inhibition is half-maximal. The term Kd denotes the concentration at which binding is half-saturated.
